Kd data for one substance are collected here from publication PMC10210826.

The target of this assay is N-terminal biotinylated tetradecapeptide of the C-terminal portion of the SARS-CoV-2 E protein (SARS-CoV-2). Briefly: SPR.

For the substance “PDZ2 domain of human ZO1 (ZO1-PDZ2 domain) (domain or fragment)”, the Kd was found to be 2100 nM.

By Kd is commonly meant the equilibrium constant for the complex coming apart. A lower Kd goes with tighter binding.
